Experiments:
[1] = system: Duchenne muscular dystrophy boys; settings: orally, 100 mg/kg; cited from earlier work
[2] = system: Anxa6^em1(GFP) mice; experiment: Prednisone injection, annexin A6GFP repair cap after laser injury of isolated myofibers; assay type: in vivo, mouse; settings: 1 mg/kg intraperitoneal, myofibers isolated 24 hours post injection; vs DMSO control
Procedure: Multiphoton laser injury and imaging. Isolated fibers were subjected to laser-induced damage at room temperature using the Nikon A1R-MP multiphoton microscope. Imaging was performed using a 25×1.1 NA objective directed by the NIS-Elements AR imaging software. Green fluorescence protein (GFP) and FM 4-64 were excited using a 920 nm wavelength laser and emission wavelengths of […] and 629 nm were collected respectively. To induce laser damage on isolated myofibers, a diffraction limited spot (diameter approximately 410 nm) was created on the lateral membrane of the myofiber using a 920 nm wavelength laser at 10-15% laser power for 1 second. Time lapse images were collected as follows: one image was collected prior to damage, one image upon damage, then every 8 s for 80 s (10 images) followed by every 30 seconds for 5 min (10 images). At the end of the time lapsed image series, z-stack images were collected at 250 nm intervals through the damaged site on the myofiber directed by the NIS-Elements AR imaging software. Fluorescence intensity and cap area were measured using Fiji (NIH).
For prednisone studies, prednisone (catalog P6254) was resuspended in DMSO (catalog D2650, Sigma-Aldrich) at 5 mg/ml. Dosing was based on pretreatment weights (1 mg/kg body weight) in 30 μl total PBS. Mice were injected at 7 am on the day prior to imaging. […]

[3] = system: rat model of myocardial ischemia-reperfusion-induced injury; settings: La et al., FASEB J. 2001; cited from earlier work
[4] = system: myofibers; experiment: Annexin repair cap formation after laser injury at multiple Ca2+ concentrations; assay type: cell-based, mouse
Procedure: (§1) Electroporation, myofiber isolation, laser injury, cap and vesicle measurement. Flexor digitorum brevis (FDB) fibers were transfected with endo-free plasmid DNA by in vivo electroporation. Methods were described previously in (Demonbreun and McNally, 2015; Demonbreun et al., 2016b; DiFranco et al., 2009). Z-stack projections were acquired from consecutive acquisitions after the final time-lapse frame, approximately 4 minutes post damage, with a […] step size between slices. Z-stack renderings were constructed in FIJI. Measurement of the cap area and feret diameter were conducted from a single slice near the middle of the z-stack using FIJI imaging tools. Fibers expressing similar levels of tagged or GCaMP5G protein were compared. GCaMP5G Ca^2+ fluorescence was measured from the acquired timelapse images, using a standard rectangular ROI, placed inside the myofiber below the site of damage using FIJI. Fluorescence was expressed as F/F0. External vesicle number and GCaMP5G area were measured from endpoint z-stacks and max projection images using FIJI. Vesicles were considered external if they were found outside the sarcolemma assessed in brightfield and fluorescent channels. All measurements were acquired from myofibers isolated from at least n≥3 mice, n≥3 myofibers per mouse.
Calcium kinetics. FDB muscle was electroporated and isolated as described above. Myofibers were damaged in Ringers solution with Ca^2+ concentrations of 2 mM, 1 mM, 0.5 mM, 0.25 mM, 0.175 mM, 0.1 mM, 0.050 mM, and 0 mM. EDTA was added as a Ca^2+ chelating agent in only in the 0 mM Ca^2+ Ringers. Myofibers were isolated directly into 2 mM, 1 mM and 0.5 mM Ringers for those experiments respectively. For experiments using less than 0.5 mM Ca^2+ myofibers were isolated in 0.5 mM Ca^2+ Ringers and then diluted with 0 mM EDTA-free Ca^2+ Ringers. For 0 mM experiments, myofibers were isolated in 0.5 mM Ca^2+ Ringers and then replaced with 0 mM Ca^2++EDTA Ringers just prior to imaging. Co-electroporation of wildtype annexin+wildtype annexin constructs was performed in one mouse foot, while the contralateral foot was co-electroporated with wildtype annexin+mutant annexin. All measurements were acquired from myofibers isolated from at least n≥2 mice, n≥3 myofibers per mouse at each Ca^2+ concentration. Area-Ca^2+ curves were fitted with a Hill Curve at Ca^2+ concentrations ranging from 0-2 mM. Kinetic parameters were calculated using Prism Graphpad.
as §1, with “(Demonbreun A R, Quattrocelli M, Barefield D Y, Allen M V, Swanson K E,” for “(Demonbreun”, “McNally E M. An actin-dependent annexin complex mediates plasma membrane repair in muscle. The Journal of cell biology. 2016; 213(6):705-18; Demonbreun A R, and McNally E M. DNA Electroporation, Isolation and Imaging of Myofibers. Journal of visualized experiments: JoVE.” for “McNally,”, “106(106):e53551;” for “Demonbreun et al., 2016b;”, “M, Quinonez M, Capote J, and Vergara J. DNA transfection of mammalian skeletal muscles using in vivo electroporation. Journal of visualized experiments: JoVE. 2009; 32(32)).” for “et al., 2009).”, “Vesicles were considered external if they were found outside the sarcolemma assessed in brightfield and fluorescent channels. All measurements were acquired from myofibers isolated from at least n≥3 mice, n≥3 myofibers per mouse.” left out

[5] = system: wildtype myofibers; experiment: Laser-induced membrane injury, FM 4-64 dye uptake; assay type: cell-based, mouse; settings: mutant A6E233A-GFP vs wildtype annexin A6-GFP expressing myofibers
[6] = system: wildtype myofibers; experiment: Laser injury FM 4-64 uptake, E coli versus HEK cell produced rANXA6; assay type: cell-based, mouse; settings: 13 μg/ml and 130 μg/ml; for FM 4-64 dye uptake after laser injury: vs BSA control
Procedure: Myofiber isolation, laser injury, and dye measurement. For recombinant myofibers studies, myofibers were isolated from wildtype mice. Myofibers were incubated in Ringer's media with 13 μg/ml or 130 μg/ml human recombinant annexin, E coli or HEK cell produced. Bovine serum albumin (BSA) was used as a negative control. FM 4-64 ([…]) was added to the myofibers just prior to imaging. Fibers were subjected to laser-induced damage at room temperature using the Nikon A1R-MP multiphoton microscope. Imaging was performed using a 25×1.1 NA objective directed by the NIS-Elements AR imaging software. FM 4-64 was excited using a 920 nm wavelength laser and emission wavelengths of 575 nm and 629 nm were collected, respectively. To induce laser damage on isolated myofibers, a diffraction limited spot (diameter approximately 410 nm) was created on the lateral membrane of the myofiber using a 920 nm wavelength laser at 10-15% laser power for 1 second. FM 4-64 area was measured using FIJI from a single slice near the middle of the z-stack. Myofiber quality control was based on a number of characteristics including using adherent myofibers with intact sarcomere structure. Myofibers appeared devoid of tears or ruptures induced during the isolation protocol. The region of the myofiber selected for damage was linear and not located on a nucleus or neuromuscular junction.
Statistical analyses were performed with Prism (Graphpad, La Jolla, Calif.). Comparisons relied on ANOVA (1way ANOVA for 1 variable). P-values of less than or equal to 0.05 were considered significant. Error bars represent +/−standard error of the mean (SEM).

CC/C=C\C/C=C\C/C=C\C/C=C\C/C=C\C/C=C\CCC(=O)NCCNC(=O)c1ccccc1O [Edasalonexent]
muscle disease progression [1]: delayed muscle disease progression

C[C@]12C=CC(=O)C=C1CC[C@@H]1[C@@H]2C(=O)C[C@@]2(C)[C@H]1CC[C@]2(O)C(=O)CO [prednisone]
annexin A6GFP repair cap size [2]: reduced

AC2-26: N-terminal annexin A1 peptide (AMVSEFLKQAWFIENEEQEYVQTVK; UniProt P04083 2-26, looked up, fragment) [reference compound]
cardioprotection [3]: cardioprotective response

B1: recombinant annexin A1: recombinant annexin A1 protein (literature) (protein, UniProt P04083 2-346, looked up)
Annexin A1: AMVSEFLKQAWFIENEEQEYVQTVKSSKGGPGSAVSPYPTFNPSSDVAALHKAIMVKGVDEATIIDILTKRNNAQRQQIKAAYLQETGKPLDETLKKALTGHLEEVVLALLKTPAQFDADELRAAMKGLGTDEDTLIEILASRTNKEIRDINRVYREELKRDLAKDITSDTSGDFRNALLSLAKGDRSEDFGVNEDLADSDARALYEAGERRKGTDVNVFNTILTTRSYPQLRRVFQKYTKYSKHDMNKVLDLELKGDIEKCLTAIVKCATSKPAFFAEKLHQAMKGVGTRHKALIRIMVSRSEIDMNDIKAFYQKMYGISLCQAILDETKGDYEKILVALCGGN
cardioprotection [3]: cardioprotective response

B2: annexin A6E233A: Ca2+-binding mutant of annexin A6 (E233A), plasmid expressed, dominant negative (protein, UniProt P14824 2-673, looked up, variant E233A)
Annexin A6: AKIAQGAMYRGSVHDFPEFDANQDAEALYTAMKGFGSDKESILELITSRSNKQRQEICQNYKSLYGKDLIEDLKYELTGKFERLIVNLMRPLAYCDAKEIKDAISGVGTDEKCLIEILASRTNEQMHQLVAAYKDAYERDLESDIIGDTSGHFQKMLVVLLQGTRENDDVVSEDLVQQDVQDLYEAGELKWGTDEAQFIYILGNRSKQHLRLVFDEYLKTTGKPIEASIRGALSGDFEKLMLAVVKCIRSTPEYFAERLFKAMKGLGTRDNTLIRIMVSRSELDMLDIREIFRTKYEKSLYSMIKNDTSGEYKKALLKLCGGDDDAAGQFFPEAAQVAYQMWELSAVSRVELKGTVCAANDFNPDADAKALRKAMKGIGTDEATIIDIVTHRSNAQRQQIRQTFKSHFGRDLMADLKSEISGDLARLILGLMMPPAHYDAKQLKKAMEGAGTDEKTLIEILATRTNAEIRAINEAYKEDYHKSLEDALSSDTSGHFRRILISLATGNREEGGENRDQAQEDAQVAAEILEIADTPSGDKTSLETRFMTVLCTRSYPHLRRVFQEFIKKTNYDIEHVIKKEMSGDVKDAFVAIVQSVKNKPLFFADKLYKSMKGAGTDEKTLTRVMVSRSEIDLLNIRREFIEKYDKSLHQAIEGDTSGDFMKALLALCGGED
modifications: GFP tag
annexin A1, A2 and A6 cap size with co-expressed mutant annexin A6 ([4]; compared to A1+A6, A2+A6, A6+A6 controls (heterotypic)): significant reduction
repair cap diameter (DMAX) / cap size of the co-expressed wildtype annexin of the same type ([4]; wildtype+mutant vs wildtype+wildtype co-electroporation (homotypic)): significantly reduced
FM 4-64 fluorescence area after laser injury [5]: increased

B3: E coli produced rANXA6: human recombinant annexin A6 produced in E coli, from R&D Systems or CRO Evotec SE (protein, UniProt P08133 2-673, looked up)
Annexin A6: AKPAQGAKYRGSIHDFPGFDPNQDAEALYTAMKGFGSDKEAILDIITSRSNRQRQEVCQSYKSLYGKDLIADLKYELTGKFERLIVGLMRPPAYCDAKEIKDAISGIGTDEKCLIEILASRTNEQMHQLVAAYKDAYERDLEADIIGDTSGHFQKMLVVLLQGTREEDDVVSEDLVQQDVQDLYEAGELKWGTDEAQFIYILGNRSKQHLRLVFDEYLKTTGKPIEASIRGELSGDFEKLMLAVVKCIRSTPEYFAERLFKAMKGLGTRDNTLIRIMVSRSELDMLDIREIFRTKYEKSLYSMIKNDTSGEYKKTLLKLSGGDDDAAGQFFPEAAQVAYQMWELSAVARVELKGTVRPANDFNPDADAKALRKAMKGLGTDEDTIIDIITHRSNVQRQQIRQTFKSHFGRDLMTDLKSEISGDLARLILGLMMPPAHYDAKQLKKAMEGAGTDEKALIEILATRTNAEIRAINEAYKEDYHKSLEDALSSDTSGHFRRILISLATGHREEGGENLDQAREDAQVAAEILEIADTPSGDKTSLETRFMTILCTRSYPHLRRVFQEFIKMTNYDVEHTIKKEMSGDVRDAFVAIVQSVKNKPLFFADKLYKSMKGAGTDEKTLTRIMVSRSEIDLLNIRREFIEKYDKSLHQAIEGDTSGDFLKALLALCGGED
modifications: E. coli produced
notes: human recombinant annexin A6 produced in E coli, from R&D Systems or CRO Evotec SE
effect on membrane repair, E coli produced compared to mammalian cell produced protein [6]: not significantly different
effect on membrane repair, E coli produced compared to mammalian cell produced protein ([6]; listed as annexin A6 protein produced in prokaryotic cells): performed as well as
FM 4-64 dye uptake after laser injury [6]: significantly less

B4: mammalian HEK cell produced rANXA6: human recombinant annexin A6 produced in mammalian HEK cells (protein, UniProt P08133 2-673, looked up)
Annexin A6: B3 Annexin A6
FM 4-64 dye uptake after laser injury [6]: significantly less

Source: US20220143136A1, “USE OF ANNEXINS IN PREVENTING AND TREATING MUSCLE MEMBRANE INJURY” (NORTHWESTERN UNIVERSITY, priority 2018, published 2022)
